Laboratory results reported in US20140378663A1.

Biological target: T1, CD20 antigen on Raji lymphoblastoid B cells (UniProt P11836)
T1 sequence (looked up): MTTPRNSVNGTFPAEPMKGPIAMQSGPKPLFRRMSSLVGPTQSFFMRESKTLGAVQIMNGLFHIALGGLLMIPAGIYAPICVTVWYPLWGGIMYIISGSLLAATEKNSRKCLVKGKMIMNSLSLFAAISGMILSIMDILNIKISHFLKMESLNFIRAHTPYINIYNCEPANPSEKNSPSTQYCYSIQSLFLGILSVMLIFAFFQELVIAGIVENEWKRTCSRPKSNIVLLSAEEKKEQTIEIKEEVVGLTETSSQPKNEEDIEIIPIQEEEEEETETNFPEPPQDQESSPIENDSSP
Experiment: flow cytometry on Raji cells

B1: R603 chimeric anti-CD20 antibody (LFB-R603), IgG1 with wild-type Fc (antibody, INN chains, looked up, V domains shown, part only)
VH: QAYLQQSGAELVRPGASVKMSCKASGYTFTSYNMHWVKQTPRQGLEWIGGIYPGNGDTSYNQKFKGKATLTVGKSSSTAYMQLSSLTSEDSAVYFCARYDYNYAMDYWGQGTSVTVSS
VL: QIVLSQSPAILSASPGEKVTMTCRASSSVSYMHWYQQKPGSSPKPWIYATSNLASGVPARFSGSGSGTSYSFTISRVEAEDAATYYCQQWTFNPPTFGGGTRLEIK
modifications: IgG1
Q: For B1, which Ag binding MFI (Arbitrary Unit) is on record?
A: The Ag binding MFI (Arbitrary Unit) was 123.
